Patent US20240301031A1 (JIANGSU HENGRUI PHARMACEUTICALS, published 2024)
Like-named read-outs stand apart in the source and are kept apart here.

T1: human APRIL (5860-AP-010/CF, R&D Systems) (human, UniProt O75888 115-250, limits assumed)
T1 construct: Bought protein
T1 sequence (looked up): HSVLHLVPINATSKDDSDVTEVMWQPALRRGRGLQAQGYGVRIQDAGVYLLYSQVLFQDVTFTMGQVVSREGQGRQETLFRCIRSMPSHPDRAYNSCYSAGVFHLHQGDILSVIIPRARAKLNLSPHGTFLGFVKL

B1: TACI-12 Fc (Fc fusion)
chain: SLSCRKEQGKFYDHLLRDCISCASICGQHPKQCAYFCEDKTHTCPPCPAPEAEGAPSVFLFPPKPKDTLMISRTPEVTCVVVDVSHEDPEVKFNWYVDGVEVHNAKTKPREEQYNSTYRVVSVLTVLHQDWLNGKEYKCKVSNKALPSSIEKTISKAKGQPREPQVYTLPPSRDELTKNQVSLTCLVKGFYPSDIAVEWESNGQPENNYKTTPPVLDSDGSFFLYSKLTVDKSRWQQGNVFSCSVMHEALHNHYTQKSLSLSPGK
notes: TACI-9 truncated at the C-terminus by 3 amino acids NKL, fused directly to Fc; two identical polypeptides
B2: TACI-11 Fc (Fc fusion)
chain: SLSCRKEQGKFYDHLLRDCISCASICGQHPKQCAYFCENDKTHTCPPCPAPEAEGAPSVFLFPPKPKDTLMISRTPEVTCVVVDVSHEDPEVKFNWYVDGVEVHNAKTKPREEQYNSTYRVVSVLTVLHQDWLNGKEYKCKVSNKALPSSIEKTISKAKGQPREPQVYTLPPSRDELTKNQVSLTCLVKGFYPSDIAVEWESNGQPENNYKTTPPVLDSDGSFFLYSKLTVDKSRWQQGNVFSCSVMHEALHNHYTQKSLSLSPGK
notes: TACI-9 truncated at the C-terminus by 2 amino acids KL, fused directly to Fc; two identical polypeptides
B3: TACI-13 Fc (Fc fusion)
chain: SLSCRKEQGKFYDHLLRDCISCASICGQHPKQCAYFCDKTHTCPPCPAPEAEGAPSVFLFPPKPKDTLMISRTPEVTCVVVDVSHEDPEVKFNWYVDGVEVHNAKTKPREEQYNSTYRVVSVLTVLHQDWLNGKEYKCKVSNKALPSSIEKTISKAKGQPREPQVYTLPPSRDELTKNQVSLTCLVKGFYPSDIAVEWESNGQPENNYKTTPPVLDSDGSFFLYSKLTVDKSRWQQGNVFSCSVMHEALHNHYTQKSLSLSPGK
notes: Fused directly to Fc; two identical polypeptides
B4: TACI-9 Fc (Fc fusion)
chain: SLSCRKEQGKFYDHLLRDCISCASICGQHPKQCAYFCENKLDKTHTCPPCPAPEAEGAPSVFLFPPKPKDTLMISRTPEVTCVVVDVSHEDPEVKFNWYVDGVEVHNAKTKPREEQYNSTYRVVSVLTVLHQDWLNGKEYKCKVSNKALPSSIEKTISKAKGQPREPQVYTLPPSRDELTKNQVSLTCLVKGFYPSDIAVEWESNGQPENNYKTTPPVLDSDGSFFLYSKLTVDKSRWQQGNVFSCSVMHEALHNHYTQKSLSLSPGK
notes: TACI positions 68-108, no mutation, fused directly to Fc; two identical polypeptides
B5: TACI-9-10Fc (Fc fusion)
chain: SLSCREEQGEFYDHLLRDCISCASICGQHPKQCAYFCENKLDKTHTCPPCPAPEAEGAPSVFLFPPKPKDTLMISRTPEVTCVVVDVSHEDPEVKFNWYVDGVEVHNAKTKPREEQYNSTYRVVSVLTVLHQDWLNGKEYKCKVSNKALPSSIEKTISKAKGQPREPQVYTLPPSRDELTKNQVSLTCLVKGFYPSDIAVEWESNGQPENNYKTTPPVLDSDGSFFLYSKLTVDKSRWQQGNVFSCSVMHEALHNHYTQKSLSLSPGK
notes: TACI-9 with K6E and K10E, fused to Fc; two identical polypeptides
B6: TACI-9-15Fc (Fc fusion)
chain: STSCREEQGEFYDHLLRDCISCASICGQHPKQCAAFCENKLDKTHTCPPCPAPEAEGAPSVFLFPPKPKDTLMISRTPEVTCVVVDVSHEDPEVKFNWYVDGVEVHNAKTKPREEQYNSTYRVVSVLTVLHQDWLNGKEYKCKVSNKALPSSIEKTISKAKGQPREPQVYTLPPSRDELTKNQVSLTCLVKGFYPSDIAVEWESNGQPENNYKTTPPVLDSDGSFFLYSKLTVDKSRWQQGNVFSCSVMHEALHNHYTQKSLSLSPGK
notes: two identical polypeptides
B7: TACI-14 Fc (Fc fusion)
chain: SLSCRKEQGKFYDHLLRDCISCASICGQHPKQCAYFDKTHTCPPCPAPEAEGAPSVFLFPPKPKDTLMISRTPEVTCVVVDVSHEDPEVKFNWYVDGVEVHNAKTKPREEQYNSTYRVVSVLTVLHQDWLNGKEYKCKVSNKALPSSIEKTISKAKGQPREPQVYTLPPSRDELTKNQVSLTCLVKGFYPSDIAVEWESNGQPENNYKTTPPVLDSDGSFFLYSKLTVDKSRWQQGNVFSCSVMHEALHNHYTQKSLSLSPGK
notes: as for B3
B8: TACI-10 Fc (Fc fusion)
chain: SLSCRKEQGKFYDHLLRDCISCASICGQHPKQCAYFCENKDKTHTCPPCPAPEAEGAPSVFLFPPKPKDTLMISRTPEVTCVVVDVSHEDPEVKFNWYVDGVEVHNAKTKPREEQYNSTYRVVSVLTVLHQDWLNGKEYKCKVSNKALPSSIEKTISKAKGQPREPQVYTLPPSRDELTKNQVSLTCLVKGFYPSDIAVEWESNGQPENNYKTTPPVLDSDGSFFLYSKLTVDKSRWQQGNVFSCSVMHEALHNHYTQKSLSLSPGK
notes: TACI-9 truncated at the C-terminus by 1 amino acid L, fused directly to Fc; two identical polypeptides

How the values were obtained:
[1] = biological target: T2, human BAFF (10056-HNCH, Sino biological) (human, UniProt Q9Y275 134-285); assay: ELISA, BAFF coated, fusion protein titrated
T2 construct: Bought protein
Experimental: (§1) The binding activity of the antibodies or fusion proteins for BAFF, APRIL, and IL-12/23 p40 was assayed by the ELISA method (coating an antigen protein). The specific procedures were as follows:
(§2) A BAFF (Sino biological, 10056-HNCH), APRIL (R&D Systems, 5860-AP-010/CF), or IL-12/23 p40 (Sino biological, 10052-H08H) protein was diluted to 1 μg/mL with a PBS (BasalMedia, B320) buffer at pH 7.4, and added to a 96-well microplate (Corning, 3590) at 100 μL/well. The plate was incubated at 4° C. overnight. After the liquid was discarded, 300 μL of 5% skim milk (BD, 232100) diluted with PBS was added to each well for blocking, and the plate was incubated at 37° C. for 2 h. After the blocking was completed, the blocking solution was discarded, and the plate was washed 3 times with a PBST buffer (PBS at pH 7.4 containing 0.1% tween-20). 100 μL of test antibody or fusion protein solution diluted in a gradient was added to each well, and the plate was incubated at 37° C. for 1 h. After the incubation was completed, the plate was washed 3 times with PBST. […] The plate was washed 3 times with PBST. 100 μL of TMB chromogenic substrate (KPL, 5120-0077) was added to each well, and the plate was incubated at room temperature for 10-15 min. The reaction was stopped by adding 50 μL of 1 M H₂SO₄ to each well. The plate was read for absorbance values at 450 nm on a microplate reader, the binding curves of the antibodies to an antigen were fitted with software, and the EC₅₀ values were calculated.

[2] = biological target: T2, human BAFF (10056-HNCH, Sino biological); assay: competition ELISA: biotin-labeled BAFF to coated BAFF-R
Experimental: (§3) The blocking activity of the antibodies and the fusion proteins for receptors and ligands such as BAFF/BAFF-R, BAFF/BCMA, BAFF/TACI, APRIL/BCMA, APRIL/TACI, and p40/IL-12R1 was assayed by the ELISA method. The specific procedures were as follows:
(§4) A receptor protein was diluted to 2 μg/mL with PBS at pH 7.4 (BasalMedia, B320) and added to a 96-well microplate (Corning, 3590) at 100 μL/well. The plate was incubated at 4° C. overnight. After the liquid was discarded, 200 μL of 1% Casein blocking solution (Thermo, 37528) was added to each well for blocking, and the plate was incubated at 37° C. for 2 h. After the blocking was completed, the blocking solution was discarded, and the plate was washed 3 times with a PBST buffer (PBS at pH 7.4 containing 0.1% tween-20) for later use. A biotin-labeled ligand protein at a fixed concentration was mixed with the antibody or fusion protein diluted in gradient, pre-incubated at 37° C. for 30 min, and added to a blocked microplate. The plate was incubated at 37° C. for 1.5 h. After the incubation was completed, the plate was washed 3 times with PBST. 100 μL of streptavidin-HRP (Invitrogen, 434323, diluted at a ratio of 1:4000) was added to each well, and the plate was incubated at 37° C. for 1 h. The supernatant was removed, and the plate was washed 3 times with PBST. 100 μL of TMB chromogenic substrate (KPL, 5120-0077) was added to each well, and the plate was incubated at room temperature for 10-15 min. The reaction was stopped by adding 50 μL of 1 M H₂SO₄ to each well. The plate was read for absorbance values at 450 nm on a microplate reader, the curves for the inhibition of the binding of the ligands to the receptors were fitted with software, and the IC₅₀ values were calculated.

[3] = biological target: T1, human APRIL (5860-AP-010/CF, R&D …); assay: SPR (Biacore), sample captured on Protein A, antigen flowed, 1:1 fit
Experimental: A certain amount of test sample was subjected to affinity capture by a biosensor chip Protein A (GE, 29127556), then antigens at a series of concentration gradients were allowed to flow on the surface of the chip. The reaction signals were detected in real time by using Biacore (GE, 8K) to obtain association and dissociation curves. After the dissociation was completed for each cycle, the biochip was washed and regenerated with a 10 mM glycine-hydrochloric acid solution at pH 1.5 (GE, BR-1003-54). The experimental data were fitted using BIAevaluation version 4.1, GE software with a 1:1 model to obtain affinity values. The related antigen proteins used in this assay are as follows: human IL-23 (CT048-H08H, Sino biological), human IL-12 (CT050-H08H, Sino biological), human BAFF (10056-HNCH, Sino biological), human APRIL (5860-AP-010/CF, R&D Systems), cynomolgus monkey p40 (10215-CL, R&D Systems), cynomolgus monkey BAFF (BAF-CM412B, Kactus), cynomolgus monkey APRIL (APR-CM410B, Kactus), mouse BAFF (BAF-M521y, Acro Biosystems), and mouse APRIL (7907-AP/CF, R&D Systems).

[4] = biological target: T2, human BAFF (10056-HNCH, Sino biological); assay: competition ELISA: biotin-labeled BAFF to coated BAFF-R; remark: listed apart in the source
Experimental: as §3, §4

[5] = biological target: T2, human BAFF (10056-HNCH, Sino biological); assay: ELISA, BAFF coated, fusion protein titrated; remark: listed apart in the source
Experimental: as §1, §2

[6] = biological target: T2, human BAFF (10056-HNCH, Sino biological); assay: SPR (Biacore), sample captured on Protein A, antigen flowed, 1:1 fit

Row | EC50 [1] | IC50 [2] | Kd [3] | koff [3] | kon [3] | IC50 [4] | EC50 [5] | Kd [6] | koff [6] | kon [6] | Binder
1 | 0.894 nM | 3.86 nM | – | – | – | – | – | – | – | – | B1
2 | 0.584 nM | 2.62 nM | – | – | – | – | – | – | – | – | B2
3 | 3.66 nM | 30.1 nM | – | – | – | – | – | – | – | – | B3
4 | 0.49 nM | 2.09 nM | 0.018 nM | 0.000207 s⁻¹ | 1.15e+07 M⁻¹ s⁻¹ | 5.02 nM | 0.418 nM | 0.0748 nM | 1.62e-05 s⁻¹ | 217000 M⁻¹ s⁻¹ | B4
5 | – | – | 0.0128 nM | 0.000112 s⁻¹ | 8.75e+06 M⁻¹ s⁻¹ | – | 0.12 nM | 0.081 nM | 1.89e-05 s⁻¹ | 234000 M⁻¹ s⁻¹ | B5
6 | – | – | 0.0125 nM | 9.6e-05 s⁻¹ | 7.67e+06 M⁻¹ s⁻¹ | – | 0.0869 nM | 0.0773 nM | 2.12e-05 s⁻¹ | 274000 M⁻¹ s⁻¹ | B6
7 | 64.2 nM | 780 nM | – | – | – | – | – | – | – | – | B7
8 | 0.561 nM | 2.7 nM | – | – | – | – | – | – | – | – | B8
